Laboratory results published in article PMC10916747, “Safety, biodistribution and radiation dosimetry of the Arg-Gly-Asp peptide ^99mTc-maraciclatide in healthy volunteers” (Nuclear Medicine Communications, 2024).
Numbered stars: 1 amine (or outer) side, 2 acyl side, 3 side chain; on linkers, the order of the positions; unused ones are H or OH. Bridge positions count the residues as written; N and C are the ends. Side chains are listed from the residue outwards. Peptide text beside a SMILES is read from it. * marks the point of attachment. X1 = C/C(=N\O)C(C)(C)NCCC(CCNC(C)(C)/C(C)=N/O)CCN*; Glutaryl = O=C(CCCC(=O)[*:2])[*:1]; X2 = NC(=O)COCC(=O)NCCOCCOCCOCCN*

Key:
healthy volunteers [1] = system: healthy volunteers; set-up: method as in PMID 17353156; settings: human urine, highest dose group (150 micrograms maraciclatide), reversed-phase LC ion-trap MS; cited from earlier work
clinical = experiment: clinical; set-up: species or system human; settings: human, in vivo, iv
Method: (§1) To calculate ^99mTc-maraciclatide ex-vivo activity, blood, plasma, urine, and faeces were collected at various time points after administration. Blood and plasma samples were collected at 10 min, 30 min, 1 h, 2 h, 4 h, 8 h, 24 h, 48 h, 72 h, and 7 days post-administration. Concentrations of maraciclatide in plasma were assayed using the LC-MS method (LOQ was 0.5 ng/ml). Urine was also collected at the same time points (if possible) up to 24 h post-administration. Faecal samples were collected as voided for up to 24 h post-administration. Assayed samples for ^99mTc-maraciclatide content were then measured using a gamma counter.
(§2) Concentrations of maraciclatide in plasma were assayed using the LC-MS method (LOQ was 0.5 ng/ml). The mean apparent terminal elimination half-life was approximately 1 h. Overall, systemic clearance was approximately 6.7 ml/min/kg, whilst the mean apparent volume of distribution was approximately 520 ml/kg. The majority of ^99mTc activity was excreted through the urinary pathway and GI tract, 55% and 16%, respectively.

healthy volunteers [2] = experiment: clinical; set-up: species or system human; settings: in vivo, iv
Method: as §1, §2

healthy volunteers [3] = experiment: Phase 1 safety assessment (adverse events, vital signs, ECG, laboratory parameters)
Method: In 2003, a phase 1, placebo-controlled, observer-blinded, randomised, single ascending-dose study was performed. The study aimed to assess the safety of three intravenous levels of maraciclatide and the biodistribution and radiation dosimetry of ^99mTc-maraciclatide in healthy volunteers, assessing the potential of ^99mTc-maraciclatide as a radiopharmaceutical for diagnostic imaging.
Safety data on vital signs (heart rate, blood pressure, temperature, and oxygen saturation), electrocardiograms (ECG), laboratory parameters and physical examinations (general appearance, lung, abdominal, cardiovascular, and neurological exam by a qualified clinician) were measured prior to administration, and at multiple time points up to 7 days following administration. Based on clinical assessment, new abnormal or worsening clinical findings were defined as a change from the participant’s normal baseline to abnormal. All abnormal changes were recorded as adverse events (AEs).
Safety assessments were performed by an observer blinded to the administration of the placebo and ^99mTc-maraciclatide. A thorough review of safety data was performed before the decision was made to escalate to the higher dose in participants.

integrin receptor αvβ3 = settings: background statement, no reference printed; cited from earlier work

C/C(=N\O)C(C)(C)NCCC(CCNC(=O)CCCC(=O)NCCCC[C@@H]1NC(=O)CSC[C@@H](C(=O)NCCOCCOCCOCCNC(=O)COCC(N)=O)NC(=O)[C@H](Cc2ccccc2)NC(=O)[C@@H]2CSSC[C@H](NC1=O)C(=O)N[C@@H](CCCNC(=N)N)C(=O)NCC(=O)N[C@@H](CC(=O)O)C(=O)N2)CCNC(C)(C)/C(C)=N/O (stereo partly shown) [Maraciclatide] ({CH2CO}-K([Glutaryl-X1])CRGDCFC-X2; disulfide 2-6; thioether N-8; N-terminus and C-terminus assumed)
metabolites in urine (healthy volunteers [1]): no metabolites were detected | species observed in urine samples (in-vivo stability) (healthy volunteers [1]): Only intact maraciclatide was observed | Vd (clinical): ~0.52 L/kg | clearance (clinical): ~6.7 mL/min/kg | half-life (clinical): ~60 min | plasma concentration time course (healthy volunteers [2]): bi-exponential decline | Abdominal pain: Cause of AE (healthy volunteers [3]; 15 μg maraciclatide (n = 8)): IMP | Blood phosphate decrease: No. with AEs (healthy volunteers [3]; 15 μg maraciclatide (n = 8)): 0 | Cardiac disorder: No. of AEs (healthy volunteers [3]; 15 μg maraciclatide (n = 8)): 0 | Cardiac disorder: No. with AEs (healthy volunteers [3]; 15 μg maraciclatide (n = 8)): 0 | Contact dermatitis: Cause of AE (healthy volunteers [3]; 15 μg maraciclatide (n = 8)): Procedural complication | Contact dermatitis: No. of AEs (healthy volunteers [3]; 15 μg maraciclatide (n = 8)): 1 | Contact dermatitis: No. with AEs (healthy volunteers [3]; 15 μg maraciclatide (n = 8)): 1 | Crystal urine present: No. of AEs (healthy volunteers [3]; 15 μg maraciclatide (n = 8)): 0 | Crystal urine present: No. with AEs (healthy volunteers [3]; 15 μg maraciclatide (n = 8)): 0 | Diarrhoea: Cause of AE (healthy volunteers [3]; 15 μg maraciclatide (n = 8)): IMP | Diarrhoea: No. of AEs (healthy volunteers [3]; 15 μg maraciclatide (n = 8)): 1 | Diarrhoea: No. with AEs (healthy volunteers [3]; 15 μg maraciclatide (n = 8)): 1 | Dizziness: Cause of AE (healthy volunteers [3]; 15 μg maraciclatide (n = 8)): IMP | Dizziness: No. of AEs (healthy volunteers [3]; 15 μg maraciclatide (n = 8)): 1 | Dizziness: No. with AEs (healthy volunteers [3]; 15 μg maraciclatide (n = 8)): 1 | ECG PR shortened: No. of AEs (healthy volunteers [3]; 15 μg maraciclatide (n = 8)): 0 | ECG PR shortened: No. with AEs (healthy volunteers [3]; 15 μg maraciclatide (n = 8)): 0 | ECG QRS complex prolonged: No. of AEs (healthy volunteers [3]; 15 μg maraciclatide (n = 8)): 0 | ECG QRS complex prolonged: No. with AEs (healthy volunteers [3]; 15 μg maraciclatide (n = 8)): 0 | Herpes simplex virus: No. with AEs (healthy volunteers [3]; 15 μg maraciclatide (n = 8)): 0 | Hyperkalaemia: No. of AEs (healthy volunteers [3]; 15 μg maraciclatide (n = 8)): 0 | Hyperkalaemia: No. with AEs (healthy volunteers [3]; 15 μg maraciclatide (n = 8)): 0 | Hypoaesthesia: Cause of AE (healthy volunteers [3]; 15 μg maraciclatide (n = 8)): IMP | Hypoaesthesia: No. of AEs (healthy volunteers [3]; 15 μg maraciclatide (n = 8)): 1 | Hypoaesthesia: No. with AEs (healthy volunteers [3]; 15 μg maraciclatide (n = 8)): 1 | Infection: No. of AEs (healthy volunteers [3]; 15 μg maraciclatide (n = 8)): 1 | Infection: No. with AEs (healthy volunteers [3]; 15 μg maraciclatide (n = 8)): 1 | Blood phosphate decrease: No. with AEs (healthy volunteers [3]; 75 μg maraciclatide (n = 8)): 1 | Cardiac disorder: No. of AEs (healthy volunteers [3]; 75 μg maraciclatide (n = 8)): 1 | Cardiac disorder: No. with AEs (healthy volunteers [3]; 75 μg maraciclatide (n = 8)): 1 | Crystal urine present: No. of AEs (healthy volunteers [3]; 75 μg maraciclatide (n = 8)): 0 | Crystal urine present: No. with AEs (healthy volunteers [3]; 75 μg maraciclatide (n = 8)): 0 | Dizziness: No. of AEs (healthy volunteers [3]; 75 μg maraciclatide (n = 8)): 0 | Dizziness: No. with AEs (healthy volunteers [3]; 75 μg maraciclatide (n = 8)): 0 | ECG PR shortened: No. of AEs (healthy volunteers [3]; 75 μg maraciclatide (n = 8)): 0 | ECG PR shortened: No. with AEs (healthy volunteers [3]; 75 μg maraciclatide (n = 8)): 0 | ECG QRS complex prolonged: Cause of AE (healthy volunteers [3]; 75 μg maraciclatide (n = 8)): Unrelated medical condition | ECG QRS complex prolonged: No. of AEs (healthy volunteers [3]; 75 μg maraciclatide (n = 8)): 1 | ECG QRS complex prolonged: No. with AEs (healthy volunteers [3]; 75 μg maraciclatide (n = 8)): 1 | Herpes simplex virus: No. with AEs (healthy volunteers [3]; 75 μg maraciclatide (n = 8)): 0 | Hyperkalaemia: No. of AEs (healthy volunteers [3]; 75 μg maraciclatide (n = 8)): 0 | Hyperkalaemia: No. with AEs (healthy volunteers [3]; 75 μg maraciclatide (n = 8)): 0 | Hypoaesthesia: No. of AEs (healthy volunteers [3]; 75 μg maraciclatide (n = 8)): 0 | Hypoaesthesia: No. with AEs (healthy volunteers [3]; 75 μg maraciclatide (n = 8)): 0 | Hyporeflexia: Cause of AE (healthy volunteers [3]; 75 μg maraciclatide (n = 8)): Other | Hyporeflexia: No. of AEs (healthy volunteers [3]; 75 μg maraciclatide (n = 8)): 1 | Hyporeflexia: No. with AEs (healthy volunteers [3]; 75 μg maraciclatide (n = 8)): 1 | Infection: No. of AEs (healthy volunteers [3]; 75 μg maraciclatide (n = 8)): 0 | Infection: No. with AEs (healthy volunteers [3]; 75 μg maraciclatide (n = 8)): 0 | Blood phosphate decrease: No. with AEs (healthy volunteers [3]; 150 μg maraciclatide (n = 8)): 0 | Cardiac disorder: No. of AEs (healthy volunteers [3]; 150 μg maraciclatide (n = 8)): 0 | Cardiac disorder: No. with AEs (healthy volunteers [3]; 150 μg maraciclatide (n = 8)): 0 | Crystal urine present: Cause of AEs (healthy volunteers [3]; 150 μg maraciclatide (n = 8)): IMP | Crystal urine present: No. of AEs (healthy volunteers [3]; 150 μg maraciclatide (n = 8)): 1 | Crystal urine present: No. with AEs (healthy volunteers [3]; 150 μg maraciclatide (n = 8)): 1 | Diarrhoea: No. of AEs (healthy volunteers [3]; 150 μg maraciclatide (n = 8)): 0 | Diarrhoea: No. with AEs (healthy volunteers [3]; 150 μg maraciclatide (n = 8)): 0 | Dizziness: No. of AEs (healthy volunteers [3]; 150 μg maraciclatide (n = 8)): 0 | Dizziness: No. with AEs (healthy volunteers [3]; 150 μg maraciclatide (n = 8)): 0 | ECG PR shortened: No. of AEs (healthy volunteers [3]; 150 μg maraciclatide (n = 8)): 0 | ECG PR shortened: No. with AEs (healthy volunteers [3]; 150 μg maraciclatide (n = 8)): 0 | ECG QRS complex prolonged: No. of AEs (healthy volunteers [3]; 150 μg maraciclatide (n = 8)): 0 | ECG QRS complex prolonged: No. with AEs (healthy volunteers [3]; 150 μg maraciclatide (n = 8)): 0 | Herpes simplex virus: No. with AEs (healthy volunteers [3]; 150 μg maraciclatide (n = 8)): 1 | Hyperkalaemia: Cause of AEs (healthy volunteers [3]; 150 μg maraciclatide (n = 8)): Procedural complication | Hyperkalaemia: No. of AEs (healthy volunteers [3]; 150 μg maraciclatide (n = 8)): 1 | Hyperkalaemia: No. with AEs (healthy volunteers [3]; 150 μg maraciclatide (n = 8)): 1 | Hypoaesthesia: No. of AEs (healthy volunteers [3]; 150 μg maraciclatide (n = 8)): 0 | Hypoaesthesia: No. with AEs (healthy volunteers [3]; 150 μg maraciclatide (n = 8)): 0 | Hyporeflexia: No. of AEs (healthy volunteers [3]; 150 μg maraciclatide (n = 8)): 0 | Hyporeflexia: No. with AEs (healthy volunteers [3]; 150 μg maraciclatide (n = 8)): 0 | Infection: No. of AEs (healthy volunteers [3]; 150 μg maraciclatide (n = 8)): 1 | Infection: No. with AEs (healthy volunteers [3]; 150 μg maraciclatide (n = 8)): 1 | AEs deemed related to maraciclatide (number) (healthy volunteers [3]; in vivo): 7 | AEs deemed related to maraciclatide (percent) (healthy volunteers [3]; in vivo): 23% | affinity to αvβ3 (integrin receptor αvβ3): nanomolar affinity
